In publication PMC9896810, “Crk proteins activate the Rap1 guanine nucleotide exchange factor C3G by segregated adaptor-dependent and -independent mechanisms” (Cell Communication and Signaling : CCS, 2023):
Where a chain is given by its changes, count along the chain named. Each block holds one binder with its values, some of them ahead of it.

How the values were obtained:
[1] = biological target: T1, C3G-AAAP (human, UniProt Q13905-1 4-1077, P283A | P284A | L286 | P287 | P289A | P453A | P454A | L456A | P457A | K459A | …); assay: ITC; single-PRM mutant of C3G in the cell titrated with CrkL or CrkL-SH3N, 25 °C, 300 mM NaCl, pH 7.5; SEDPHAT, 1:1 heteroassociation model; N is the competent fraction of C3G; conditions: both partners purified
T1 construct: human C3G isoform a, residues 4-1077; only P4 kept, P1, P2 and P3 mutated to Ala; source: E. coli BL21 (DE3), purified (IMAC, TEV digestion, reversed IMAC, SEC); not shown: His, N-terminal, cleaved; Halo, N-terminal, cleaved
T1 sequence (looked up): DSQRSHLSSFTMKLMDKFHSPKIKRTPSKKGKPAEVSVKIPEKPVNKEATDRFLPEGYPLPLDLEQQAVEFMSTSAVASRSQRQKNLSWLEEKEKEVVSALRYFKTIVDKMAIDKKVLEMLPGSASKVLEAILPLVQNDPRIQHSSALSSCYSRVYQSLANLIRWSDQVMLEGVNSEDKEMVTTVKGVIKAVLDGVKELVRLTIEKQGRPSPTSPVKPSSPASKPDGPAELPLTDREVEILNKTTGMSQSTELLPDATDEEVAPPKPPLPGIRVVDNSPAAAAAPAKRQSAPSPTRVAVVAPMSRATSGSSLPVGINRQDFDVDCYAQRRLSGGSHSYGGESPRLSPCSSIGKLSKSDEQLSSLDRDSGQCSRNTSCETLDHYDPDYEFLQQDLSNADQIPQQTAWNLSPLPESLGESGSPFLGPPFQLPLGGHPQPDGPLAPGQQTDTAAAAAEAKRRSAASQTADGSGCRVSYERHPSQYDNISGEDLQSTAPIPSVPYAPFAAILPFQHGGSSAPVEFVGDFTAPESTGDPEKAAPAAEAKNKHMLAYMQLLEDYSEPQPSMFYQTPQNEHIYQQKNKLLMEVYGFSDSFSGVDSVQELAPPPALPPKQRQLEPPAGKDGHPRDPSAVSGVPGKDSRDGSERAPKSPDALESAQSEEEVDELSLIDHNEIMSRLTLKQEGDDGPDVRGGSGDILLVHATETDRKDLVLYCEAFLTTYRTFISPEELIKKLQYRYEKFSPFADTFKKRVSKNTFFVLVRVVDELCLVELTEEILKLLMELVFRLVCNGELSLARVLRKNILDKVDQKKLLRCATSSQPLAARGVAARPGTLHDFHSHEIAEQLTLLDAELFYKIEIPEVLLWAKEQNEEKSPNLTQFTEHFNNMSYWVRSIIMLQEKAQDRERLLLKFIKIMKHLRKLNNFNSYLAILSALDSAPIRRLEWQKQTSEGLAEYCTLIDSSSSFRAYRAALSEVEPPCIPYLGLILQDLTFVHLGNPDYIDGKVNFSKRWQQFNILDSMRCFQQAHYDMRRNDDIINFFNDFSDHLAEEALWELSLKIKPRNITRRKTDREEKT

[2] = biological target: T2, C3G-PAAA (human, UniProt Q13905-1 4-1077, P453A | P454A | L456A | P457A | K459A | P540A | P541A | L543A | P544A | K546A | …); assay: as above; conditions: both partners purified
T2 construct: human C3G isoform a, residues 4-1077; only P1 kept, P2, P3 and P4 mutated to Ala; source: E. coli BL21 (DE3), purified (IMAC, TEV digestion, reversed IMAC, SEC); not shown: His, N-terminal, cleaved; Halo, N-terminal, cleaved
T2 sequence (looked up): T1 sequence (looked up) with A280P, A281P, A283L, A284P, A286K, P605A, P606A, L608A, P609A, K611A

Kd [1]: 2.7 µM
stoichiometry N [1]: 0.71
B1: CrkL-SH3N (domain or fragment, human, UniProt P46109 125-182, looked up)
chain: LEYVRTLYDFPGNDAEDLPFKKGEILVIIEKPEEQWWSARNKDGRVGMIPVPYVEKLV
notes: human CrkL, SH3N domain, residues 125-182, in pETEV15b; source: E. coli BL21 (DE3), purified (IMAC, TEV digestion, SEC); not shown: His, N-terminal, cleaved

Kd [1]: 2.4 µM
Kd [2]: 0.9 µM
stoichiometry N [2]: 0.86
B2: CrkL (full-length) (natural protein, human, UniProt P46109 1-303, looked up)
chain: MSSARFDSSDRSAWYMGPVSRQEAQTRLQGQRHGMFLVRDSSTCPGDYVLSVSENSRVSHYIINSLPNRRFKIGDQEFDHLPALLEFYKIHYLDTTTLIEPAPRYPSPPMGSVSAPNLPTAEDNLEYVRTLYDFPGNDAEDLPFKKGEILVIIEKPEEQWWSARNKDGRVGMIPVPYVEKLVRSSPHGKHGNRNSNSYGIPEPAHAYAQPQTTTPLPAVSGSPGAAITPLPSTQNGPVFAKAIQKRVPCAYDKTALALEVGDIVKVTRMNINGQWEGEVNGRKGLFPFTHVKIFDPQNPDENE
notes: human CrkL, residues 1-303, in pETEV15b; also called Crk-like protein; source: E. coli BL21 (DE3), purified (IMAC, TEV digestion, SEC); not shown: His, N-terminal, cleaved
